Laboratory results from US20190248864A1.

B1: mouse IDOL (inducible degrader of the LDLR) (enzyme, UniProt Q8BM54 1-445, looked up)
chain: MLCYVTRPDAVLMEVEVEAKANGEDCLNQVCRRLGIIEVDYFGLQFTGSKGESLWLNLRNRISQQMDGLAPYRLKLRVKFFVEPHLILQEQTRHIFFLHIKESLLAGHLQCSPEQAVELSALLAQTKFGDYNQNTAQYSYEDLCEKELSSSTLNSIVAKHKELEGISQASAEYQVLQIVSAMENYGIEWHAVRDSEGQKLLIGVGPEGISICKEDFSPINRIAYPVVQMATQSGKNVYLTVTKESGNSIVLLFKMISTRAASGLYRAITETHAFYRCDTVTSAVMMQYSRDLKGHLASLFLNENINLGKKYVFDIKRTSKEVYDHARRALYNAGVVDLVSRSDQSPPSSPLKSSDSSMSCSSCEGLSCQQTRVLQEKLRKLKEAMLCMACCEEEINSTFCPCGHTVCCESCAAQLQSCPVCRSRVEHVQHVYLPTHTSLLNLTVI

Columns and labels:
[1] = biological target: each construct (cells transfected with either wild type or the PCSK9 binding-deficient LDLR mRNAs); test: flow cytometry, half-maximal cell association of BODIPY-LDL on transfected HEK293 cells
[2] = biological target: wild type mouse LDLR (mouse) (UniProt P35951); test: cell-based or functional assay
[3] = biological target: mouse LDLR mutant 1 (LDLR_N317A, K832R, C841A) (mouse) (UniProt P35951); test: cell-based or functional assay

EC50 [1]	Average LDLR MCF, HeLa cells, co-transfected with IDOL (with Luciferase: 5773) [2]	Average LDLR MCF, Hepa1-6, co-transfected with IDOL (with Luciferase: 5272) [2]	LDLR expression as percent of the baseline, HeLa cells (% of the baseline) [2]	LDLR expression as percent of the baseline, Hepa1-6 (% of the baseline) [2]	LDLR expression as percent of the baseline, Hepa1-6 cells given no LDLR mRNA (luciferase row of Table 15) (% of the baseline) [2]	Average LDLR MCF, HeLa cells, co-transfected with IDOL (with Luciferase: 8369) [3]	Average LDLR MCF, Hepa1-6, co-transfected with IDOL (with Luciferase: 14080) [3]	LDLR expression as percent of the baseline, HeLa cells (% of the baseline) [3]	LDLR expression as percent of the baseline, Hepa1-6 (% of the baseline) [3]	Molecule
0.6 to 0.7 ng/mL	–	–	–	–	–	–	–	–	–	BODIPY-labeled LDL (low density lipoprotein) (from UniProt P04114 28-4563) (ligand)
–	2920 MCF	881 MCF	50.5	16.7	62.3	7050 MCF	8860 MCF	84.2	62.9	B1
